The source of these data is patent US20060211084A1 (TH NITRATE ELIMINATION, published 2006).

This series concerns the molecule itself. Put plainly: gel filtration chromatography (self-association). A general note: In gel filtration, larger molecules generally elute earlier.

B1: simplified eukaryotic nitrate reductase (S-NaR1) (enzyme)
chain: MDSIVTEVTYGLEIKKIKDITELPFPVRQDSPLTEVLPTDLKTKDNFVARDPDLLRLTGSHPFNSEPPLTKLYDSGFLTPVSLHFVRNHGPVPYVPDENILDWEVSIEGMVETPYKIKLSDIMEQFDIYSTPVTMVCAGNRRKEQNMVKKGAGFNWGAAGTSTSLWTGCMLGDVIGKARPSKRARFVWMEGADNPANGAYRTCIRLSWCMDPERCIMIAYQQNGEWLHPDHGKPLRVVIPGVIGGRSVKWLKKLVVSDRPSENWYHYFDNRVLPTMVTPEMAKSDDRWWKDERYAIYDLNLQTIICKPENQQVIKISEDEYEIAGFGYNGGGVRIGRIEVSLDKGKSWKLADIDYPEDRYREAGYFRLFGGLVNVCDRMSCLCWCFWKLKVPLSELARSKDILIRGMDERMMVQPRTMYWNVTSMLNNWWYRVAIIREGESLRFEHPVVANKPGGWMDRVKAEGGDILEQKLISEEDLNSAVDHHHHHH
notes: Expressed in Pichia pastoris and purified by nickel IMAC; also called nitrate-reducing portion of Pichia angusta NAD(P)H: nitrate reductase
As to B1, the binding result is given as “binds”.
